Experimental findings from patent US12269859B2, “Synthetic immune receptors and methods of use thereof” (Angeles Therapeutics, Inc., priority 2016, dated 2025) are described below.

Sequences and labels used below:
B1: 012617-S04 (protein)
chain: MALPVTALLLPLALLLHAARPLEGKPIPNPLLGLDSTGSGEDLKNVFPPEVAVFEPSKAEIAHTQKATLVCLATGFYPDHVELSWWVNGKEVHSGVCTDPQPLKEQPALNDSRYCLSSRLRVSATFWQNPRNHFRCQVQFYGLSENDEWTQDRAKPVTQIVSAEAWGRADCGITSASYHQGVLSATILYEILLGKATLYAVLVSALVLMAMVKRKDSRGRAKRSGSGATNFSLLKQAGDVEENPGPTSMALPVTALLLPLALLLHAARPDIQMTQSPSSLSASVGDRVTITCRASSSVSYMHWYQQKPGKAPKPLIYAPSNLASGVPSRFSGSGSGTDFTLTISSLQPEDFATYYCQQWSFNPPTFGQGTKVEIKRGGGGSGGGGSGGGGSEVQLVESGGGLVQPGGSLRLSCAASGYTFTSYNMHWVRQAPGKGLEWVGAIYPGNGDTSYNQKFKGRFTISVDKSKNTLYLQMNSLRAEDTAVYYCARVVYYSNSYWYFDVWGQGTLVTVSSTREQKLISEEDGSGIQNPDPAVYQLRDSKSSDKSVCLFTDFDSQTNVSQSKDSDVYITDKCVLDMRSMDFKSNSAVAWSNKSDFACANAFNNSIIPEDTFFPSSDVPCDVKLVEKSFETDTNLNFQNLSVIGFRILLLKVAGFNLLMTLRLWSSRAKRSGSGVKQTLNFDLLKLAGDVESNPGPSRGHMTEYKPTVRLATRDDVPRAVRTLAAAFADYPATRHTVDPDRHIERVTELQELFLTRVGLDIGKVWVADDGAAVAVWTTPESVEAGAVFAEIGPRMAELSGSRLAAQQQMEGLLAPHRPKEPAWFLATVGVSPDHQGKGLGSAVVLPGVEAAERAGVPAFLETSAPRNLPFYERLGFTVTADVEVPEGPRTWCMTRKPGA
B2: 030917-Z01 (protein)
chain: MALPVTALLLPLALLLHAARPEIVLTQSPGTLSLSPGERATLSCRASSSVPYIHWYQQKPGQAPRLLIYATSALASGIPDRFSGSGSGTDFTLTISRLEPEDFAVYYCQQWLSNPPTFGQGTKLELKRLEDLKNVFPPEVAVFEPSKAEIAHTQKATLVCLATGFYPDHVELSWWVNGKEVHSGVCTDPQPLKEQPALNDSRYCLSSRLRVSATFWQNPRNHFRCQVQFYGLSENDEWTQDRAKPVTQIVSAEAWGRADCGITSASYHQGVLSATILYEILLGKATLYAVLVSALVLMAMVKRKDSRGRAKRSGSGATNFSLLKQAGDVEENPGPTSMDWIWRILFLVGAATGAHSFEEVQLVQSGAEVKKPGESLKLSCKGSGRTFTSYNMHWVRQMPGKGLEWMGAIYPLTGDTSYNQKSKLQVTISADKSISTAYLQWSSLKASDTAMYYCARSTYVGGDWQFDVWGKGTTVTVSSTRIQNPDPAVYQLRDSKSSDKSVCLFTDFDSQTNVSQSKDSDVYITDKCVLDMRSMDFKSNSAVAWSNKSDFACANAFNNSIIPEDTFFPSSDVPCDVKLVEKSFETDTNLNFQNLSVIGFRILLLKVAGFNLLMTLRLWSSRAKRSGSGVKQTLNFDLLKLAGDVESNPGPSRGHMTEYKPTVRLATRDDVPRAVRTLAAAFADYPATRHTVDPDRHIERVTELQELFLTRVGLDIGKVWVADDGAAVAVWTTPESVEAGAVFAEIGPRMAELSGSRLAAQQQMEGLLAPHRPKEPAWFLATVGVSPDHQGKGLGSAVVLPGVEAAERAGVPAFLETSAPRNLPFYERLGFTVTADVEVPEGPRTWCMTRKPGA
B3: 031417-N06 (protein)
chain: MALPVTALLLPLALLLHAARPQIVLSQSPAILSASPGEKVTMTCRASSSVSYMHWYQQKPGSSPKPWIYATSNLASGVPARFSGSGSGTSYSFTISRVEAEDAATYYCQQWTFNPPTFGGGTRLEIKRTVAALEIQNPDPAVYQLRDSKSSDKSVCLFTDFDSQTNVSQSKDSDVYITDKCVLDMRSMDFKSNSAVAWSNKSDFACANAFNNSIIPEDTFFPSSDVPCDVKLVEKSFETDTNLNFQNLSVIGFRILLLKVAGFNLLMTLRLWSSRAKRSGSGVKQTLNFDLLKLAGDVESNPGPTSMDWIWRILFLVGAATGAHSFEQAYLQQSGAELVRPGASVKMSCKASGYTFTSYNMHWVKQTPRQGLEWIGGIYPGNGDTSYNQKFKGKATLTVGKSSSTAYMQLSSLTSEDSAVYFCARYDYNYAMDYWGQGTSVTVSSASTREDLKNVFPPEVAVFEPSKAEIAHTQKATLVCLATGFYPDHVELSWWVNGKEVHSGVCTDPQPLKEQPALNDSRYCLSSRLRVSATFWQNPRNHFRCQVQFYGLSENDEWTQDRAKPVTQIVSAEAWGRADCGITSASYHQGVLSATILYEILLGKATLYAVLVSALVLMAMVKRKDSRGRAKRSGSGATNFSLLKQAGDVEENPGPSRGHMTEYKPTVRLATRDDVPRAVRTLAAAFADYPATRHTVDPDRHIERVTELQELFLTRVGLDIGKVWVADDGAAVAVWTTPESVEAGAVFAEIGPRMAELSGSRLAAQQQMEGLLAPHRPKEPAWFLATVGVSPDHQGKGLGSAVVLPGVEAAERAGVPAFLETSAPRNLPFYERLGFTVTADVEVPEGPRTWCMTRKPGA
B4: 031517-W03 (protein)
chain: MALPVTALLLPLALLLHAARPLEGKPIPNPLLGLDSTGSGEDLKNVFPPEVAVFEPSKAEIAHTQKATLVCLATGFYPDHVELSWWVNGKEVHSGVCTDPQPLKEQPALNDSRYCLSSRLRVSATFWQNPRNHFRCQVQFYGLSENDEWTQDRAKPVTQIVSAEAWGRADCGITSASYHQGVLSATILYEILLGKATLYAVLVSALVLMAMVKRKDSRGRAKRSGSGATNFSLLKQAGDVEENPGPTSMALPVTALLLPLALLLHAARPEIVLTQSPSSLSASVGDRVTITCRASSSLSFMHWYQQKPGKAPKPWIYATSNLASGVPSRFSGSGSGTDYTLTISSLQPEDFATYFCHQWSSNPLTFGGGTKVEIKGGGGSGGGGSGGGGSQVQLVQSGAEVKKPGASVKVSCKASGYTFTSYNMHWVRQAPGQRLEWIGAIYPGNGDTSYNQKFKGRVTVTRDTSANTAYMELSSLKSEDTAVYYCARSHYGSNYVDYFDYWGQGTLVTVSSTREQKLISEEDGSGIQNPDPAVYQLRDSKSSDKSVCLFTDFDSQTNVSQSKDSDVYITDKCVLDMRSMDFKSNSAVAWSNKSDFACANAFNNSIIPEDTFFPSSDVPCDVKLVEKSFETDTNLNFQNLSVIGFRILLLKVAGFNLLMTLRLWSSRAKRSGSGVKQTLNFDLLKLAGDVESNPGPSRGHMTEYKPTVRLATRDDVPRAVRTLAAAFADYPATRHTVDPDRHIERVTELQELFLTRVGLDIGKVWVADDGAAVAVWTTPESVEAGAVFAEIGPRMAELSGSRLAAQQQMEGLLAPHRPKEPAWFLATVGVSPDHQGKGLGSAVVLPGVEAAERAGVPAFLETSAPRNLPFYERLGFTVTADVEVPEGPRTWCMTRKPGA
B5: 031417-L06 (protein)
chain: MALPVTALLLPLALLLHAARPQIVLSQSPAILSASPGEKVTMTCRASSSVSYMHWYQQKPGSSPKPWIYATSNLASGVPARFSGSGSGTSYSFTISRVEAEDAATYYCQQWTFNPPTFGGGTRLEIKRTVAALEDLKNVFPPEVAVFEPSKAEIAHTQKATLVCLATGFYPDHVELSWWVNGKEVHSGVCTDPQPLKEQPALNDSRYCLSSRLRVSATFWQNPRNHFRCQVQFYGLSENDEWTQDRAKPVTQIVSAEAWGRADCGITSASYHQGVLSATILYEILLGKATLYAVLVSALVLMAMVKRKDSRGRAKRSGSGATNFSLLKQAGDVEENPGPTSMDWIWRILFLVGAATGAHSFEQAYLQQSGAELVRPGASVKMSCKASGYTFTSYNMHWVKQTPRQGLEWIGGIYPGNGDTSYNQKFKGKATLTVGKSSSTAYMQLSSLTSEDSAVYFCARYDYNYAMDYWGQGTSVTVSSASTRIQNPDPAVYQLRDSKSSDKSVCLFTDFDSQTNVSQSKDSDVYITDKCVLDMRSMDFKSNSAVAWSNKSDFACANAFNNSIIPEDTFFPSSDVPCDVKLVEKSFETDTNLNFQNLSVIGFRILLLKVAGFNLLMTLRLWSSRAKRSGSGVKQTLNFDLLKLAGDVESNPGPSRGHMTEYKPTVRLATRDDVPRAVRTLAAAFADYPATRHTVDPDRHIERVTELQELFLTRVGLDIGKVWVADDGAAVAVWTTPESVEAGAVFAEIGPRMAELSGSRLAAQQQMEGLLAPHRPKEPAWFLATVGVSPDHQGKGLGSAVVLPGVEAAERAGVPAFLETSAPRNLPFYERLGFTVTADVEVPEGPRTWCMTRKPGA
B6: 041417-B06 (protein)
chain: MALPVTALLLPLALLLHAARPEVQLQQSGPGLVKPSQTLSLTCAISGDSVLSNSDTWNWIRQSPSRGLEWLGRTYHRSTWYDDYASSVRGRVSINVDTSKNQYSLQLNAVTPEDTGVYYCARDRLQDGNSWSDAFDVWGQGTMVTVSSLEIQNPDPAVYQLRDSKSSDKSVCLFTDFDSQTNVSQSKDSDVYITDKCVLDMRSMDFKSNSAVAWSNKSDFACANAFNNSIIPEDTFFPSSDVPCDVKLVEKSFETDTNLNFQNLSVIGFRILLLKVAGFNLLMTLRLWSSRAKRSGSGVKQTLNFDLLKLAGDVESNPGPTSMDWIWRILFLVGAATGAHSFEQSALTQPASVSGSPGQSITISCTGTSSDVGGYNYVSWYQQHPGKAPKLMIYDVSNRPSGVSNRFSGSKSGNTASLTISGLQAEDEADYYCSSYTSSSTLVYVFGTGTKVTVLTREDLKNVFPPEVAVFEPSKAEIAHTQKATLVCLATGFYPDHVELSWWVNGKEVHSGVCTDPQPLKEQPALNDSRYCLSSRLRVSATFWQNPRNHFRCQVQFYGLSENDEWTQDRAKPVTQIVSAEAWGRADCGITSASYHQGVLSATILYEILLGKATLYAVLVSALVLMAMVKRKDSRGRAKRSGSGATNFSLLKQAGDVEENPGPSRGHMTEYKPTVRLATRDDVPRAVRTLAAAFADYPATRHTVDPDRHIERVTELQELFLTRVGLDIGKVWVADDGAAVAVWTTPESVEAGAVFAEIGPRMAELSGSRLAAQQQMEGLLAPHRPKEPAWFLATVGVSPDHQGKGLGSAVVLPGVEAAERAGVPAFLETSAPRNLPFYERLGFTVTADVEVPEGPRTWCMTRKPGA

In one assay the test system is target antigen-expressing cell line. The assay is described as follows: Jurkat NFAT-GFP assay, coculture with target cell lines expressing the respective target antigen (summary Table 10A). It is filed as cell-based, human. More on the design: key: The signs +/−, +, 2+ etc. after the name of the cell lines indicate the relative degree of positivity on the Jurkat-NFAT-GFP assay as measured by the % GFP positive cells; +: relative degree of positivity on the Jurkat-NFAT-GFP assay as measured by the % GFP positive cells; 2+: relative degree of positivity on the Jurkat-NFAT-GFP assay as measured by the % GFP positive cells. To be noted: SIR-expressing Jurkat-NFAT-GFP cells cocultured with NALM6; relative % GFP positive cells. The procedure, abridged: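 Readout is % GFP+ cells by FACS, graded +/− to 2+ relative to parental reporter cells. Jurkat-NFAT-GFP cells stably transduced with SIR constructs (puromycin-selected) were mixed with target-antigen-expressing cell lines at roughly 1:2 effector:target and cocultured ~4–18 h.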
Take B1: the “NFAT-GFP ASSAY Positive Cell lines: NALM6” value is “(+/−)”.

As for B2, the “NFAT-GFP ASSAY Positive Cell lines: NALM6” value was “(+/−)”.

As for B3, the “NFAT-GFP ASSAY Positive Cell lines: NALM6” value is “(+)”.

The same assay, now with this note: SIR-expressing Jurkat-NFAT-GFP cells cocultured with RAJI; relative % GFP positive cells.
On to B4, for which the “NFAT-GFP ASSAY Positive Cell lines: RAJI” value is on record as “RAJI (+/−)”.

On to B5, for which the “NFAT-GFP ASSAY Positive Cell lines: RAJI” value is “RAJI (+/−)”.

Regarding B2, the “NFAT-GFP ASSAY Positive Cell lines: RAJI” value is on record as “RAJI (2+), NALM6”.

B6: the “NFAT-GFP ASSAY Positive Cell lines: RAJI” value was “RAJI (+/−)”.
